Patent US20240317834A1, “COMPOSITIONS AND METHODS FOR NEUROLOGICAL DISEASES” (CODA BIOTHERAPEUTICS, INC., priority 2020, published 2024)

How the values were obtained:
Lenti-X 293T cells = experiment: YFP fluorescence quenching anion reporter plate reader assay of engineered receptors stimulated with acetylcholine or a non-native ligand; assay type: cell-based
Procedure, shortened: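 YFP quench was followed for about 1 min 43 s after ligand delivered in iodide-based ECS, pH 7.2. Values are end-of-read fluorescence (last 10 s) divided by the pre-ligand baseline (15 s). Cells were LX293T, transfected with receptor DNA a day before the assay.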

[1] = Sensitivity of parental chimera SEQ ID NO: 33 to ligands relative to wild type α7-nAChR

B1: CODA71: parental chimeric LGIC: human α7-nAChR ligand binding domain with GlyRα1 Cys-loop fused to human GlyRα1 ion pore domain (protein)
chain: MRCSPGGVWLALAASLLHVSLQGEFQRKLYKELVKNYNPLERPVANDSQPLTVYFSLSLLQIMDVDEKNQVLTTNIWLQMSWTDHYLQWNVSEYPGVKTVRFPDGQIWKPDILLYNSADERFDATFHTNVLVNSSGHCQYLPPGIFKSSCPMDLKNFPMDVQTCKLKFGSWSYGGWSLDLQMQEADISGYIPNGEWDLVGIPGKRSERFYECCKEPYPDVTFTVTMRRRMGYYLIQMYIPSLLIVILSWISFWINMDAAPARVGLGITTVLTMTTQSSGSRASLPKVSYVKAIDIWMAVCLLFVFSALLEYAAVNFVSRQHKELLRFRRKRRHHKSPMLNLFQEDEAGEGRFNFSAYGMGPACLQAKDGISVKGANNSNTTNPPPAPSKSPEEMRKLFIQRAKKIDKISRIGFPMAFLIFNMFYWIIYKIVRREDVHNQ
modifications: synthetic sequence of chimeric LGIC
Lenti-X 293T cells; 1 nM CNL001, first column
  YFP fluorescence quenching using CNL001: 3.727%
Lenti-X 293T cells; 1 nM CNL001, second column
  YFP fluorescence quenching using CNL001: 20.231%
Lenti-X 293T cells; 1 nM brd
  YFP fluorescence quenching using TC-5619/Bradanicline: 9.41%
Lenti-X 293T cells; 3 nM brd
  YFP fluorescence quenching using TC-5619/Bradanicline: 44.38%
Lenti-X 293T cells; 3 nM var, first column
  YFP fluorescence quenching using Varenicline: −2.36
Lenti-X 293T cells; 3 nM var, second column
  YFP fluorescence quenching using Varenicline: −3.522
Lenti-X 293T cells; 10 nM CNL001, first column
  YFP fluorescence quenching using CNL001: 81.096%
Lenti-X 293T cells; 10 nM CNL001, second column
  YFP fluorescence quenching using CNL001: 82.368%
Lenti-X 293T cells; 10 nM brd
  YFP fluorescence quenching using TC-5619/Bradanicline: 76.61%
Lenti-X 293T cells; 30 nM brd
  YFP fluorescence quenching using TC-5619/Bradanicline: 70.23%
Lenti-X 293T cells; 30 nM fac
  YFP fluorescence quenching using Facinicline: 53.42
Lenti-X 293T cells; 30 nM var, first column
  YFP fluorescence quenching using Varenicline: −4.255
Lenti-X 293T cells; 30 nM var, second column
  YFP fluorescence quenching using Varenicline: −3.636
Lenti-X 293T cells; 50 nM CNL001, first column
  YFP fluorescence quenching using CNL001: 83.62%
Lenti-X 293T cells; 50 nM CNL001, second column
  YFP fluorescence quenching using CNL001: 84.482%
Lenti-X 293T cells; 50 nM abt
  YFP fluorescence quenching using ABT-126: −1.98%
Lenti-X 293T cells; 100 nM CNL001, first column
  YFP fluorescence quenching using CNL001: 84.297%
Lenti-X 293T cells; 100 nM CNL001, second column
  YFP fluorescence quenching using CNL001: 85.368%
Lenti-X 293T cells; 100 nM CNL002
  YFP fluorescence quenching using CNL002: 49.61%
Lenti-X 293T cells; 100 nM abt
  YFP fluorescence quenching using ABT-126: 24.27%
Lenti-X 293T cells; 100 nM azd0328
  YFP fluorescence quenching using AZD-0328: 73.59%
Lenti-X 293T cells; 100 nM brd
  YFP fluorescence quenching using TC-5619/Bradanicline: 78.62%
Lenti-X 293T cells; 100 nM fac
  YFP fluorescence quenching using Facinicline: 83.6
Lenti-X 293T cells; 300 nM abt
  YFP fluorescence quenching using ABT-126: 56.8%
Lenti-X 293T cells; 300 nM azd0328
  YFP fluorescence quenching using AZD-0328: 78.09%
Lenti-X 293T cells; 300 nM brd
  YFP fluorescence quenching using TC-5619/Bradanicline: 75.51%
Lenti-X 293T cells; 300 nM fac
  YFP fluorescence quenching using Facinicline: 77.44
Lenti-X 293T cells; 300 nM var, first column
  YFP fluorescence quenching using Varenicline: 46.195
Lenti-X 293T cells; 300 nM var, second column
  YFP fluorescence quenching using Varenicline: 45.522
Lenti-X 293T cells; 500 nM abt
  YFP fluorescence quenching using ABT-126: 76.28%
Lenti-X 293T cells; 500 nM var, first column
  YFP fluorescence quenching using Varenicline: 69.253
Lenti-X 293T cells; 500 nM var, second column
  YFP fluorescence quenching using Varenicline: 71.705
Lenti-X 293T cells; 1 uM CNL001, first column
  YFP fluorescence quenching using CNL001: 85.647%
Lenti-X 293T cells; 1 uM CNL001, second column
  YFP fluorescence quenching using CNL001: 86.358%
Lenti-X 293T cells; 1 uM CNL002
  YFP fluorescence quenching using CNL002: 74.15%
Lenti-X 293T cells; 1 uM abt
  YFP fluorescence quenching using ABT-126: 73.16%
Lenti-X 293T cells; 1 uM tc6987
  YFP fluorescence quenching using TC-6987: 31.56
Lenti-X 293T cells; 1 uM var, first column
  YFP fluorescence quenching using Varenicline: 79.254
Lenti-X 293T cells; 1 uM var, second column
  YFP fluorescence quenching using Varenicline: 79.244
Lenti-X 293T cells; 3 uM abt
  YFP fluorescence quenching using ABT-126: 70.98%
Lenti-X 293T cells; 3 uM tc6987
  YFP fluorescence quenching using TC-6987: 31.82
Lenti-X 293T cells; 5 uM tc6987
  YFP fluorescence quenching using TC-6987: 30.75
Lenti-X 293T cells; 10 uM abt
  YFP fluorescence quenching using ABT-126: 72.62%
Lenti-X 293T cells; 10 uM tc6987
  YFP fluorescence quenching using TC-6987: 56.68
Lenti-X 293T cells; 30 uM CNL002
  YFP fluorescence quenching using CNL002: 75.21%
Lenti-X 293T cells; 30 uM abt
  YFP fluorescence quenching using ABT-126: 77.49%
Lenti-X 293T cells; 30 uM azd0328
  YFP fluorescence quenching using AZD-0328: 79.05%
Lenti-X 293T cells; 30 uM fac
  YFP fluorescence quenching using Facinicline: 79.62
Lenti-X 293T cells; 30 uM tc6987
  YFP fluorescence quenching using TC-6987: 51.46
Lenti-X 293T cells; 50 uM abt
  YFP fluorescence quenching using ABT-126: 77.96%
Lenti-X 293T cells; 50 uM tc6987
  YFP fluorescence quenching using TC-6987: 61.26
Lenti-X 293T cells; 100 uM abt
  YFP fluorescence quenching using ABT-126: 77.81%
Lenti-X 293T cells; 100 uM tc6987
  YFP fluorescence quenching using TC-6987: 43.21
Lenti-X 293T cells; 300 uM tc6987
  YFP fluorescence quenching using TC-6987: 7.79
Lenti-X 293T cells; 500 uM tc6987
  YFP fluorescence quenching using TC-6987: 51.58
Lenti-X 293T cells; TC-6683 30 nM
  percent quench of YFP fluorescence, 30 nM TC-6683: −14.43%
Lenti-X 293T cells; TC-6683 300 nM
  percent quench of YFP fluorescence, 300 nM TC-6683: −13.08%
Lenti-X 293T cells; TC-6683 3 uM
  percent quench of YFP fluorescence, 3 uM TC-6683: −13.71%
Lenti-X 293T cells; TC-6683 30 uM
  percent quench of YFP fluorescence, 30 uM TC-6683: −14.02%
Lenti-X 293T cells; TC-6683 100 uM
  percent quench of YFP fluorescence, 100 uM TC-6683: −8.77%
Lenti-X 293T cells; acetylcholine 10 uM
  percent quench of YFP fluorescence, 10 uM ach: 15.61%
Lenti-X 293T cells; acetylcholine 30 uM
  percent quench of YFP fluorescence, 30 uM ach: 63.31%
Lenti-X 293T cells; acetylcholine 50 uM
  percent quench of YFP fluorescence, 50 uM ach: 73.16%
Lenti-X 293T cells; acetylcholine 100 uM
  percent quench of YFP fluorescence, 100 uM ach: 74.94%
Lenti-X 293T cells; acetylcholine 300 uM
  percent quench of YFP fluorescence, 300 uM ach: 65.94%
Lenti-X 293T cells; acetylcholine 500 uM
  percent quench of YFP fluorescence, 500 uM ach: 62.78%
Lenti-X 293T cells; acetylcholine 1 mM
  percent quench of YFP fluorescence, 1 mM ach: 74.24%
Lenti-X 293T cells; acetylcholine 3 mM
  percent quench of YFP fluorescence, 3 mM ach: 76.27%
Lenti-X 293T cells; acetylcholine 5 mM
  percent quench of YFP fluorescence, 5 mM ach: 77.15%
Lenti-X 293T cells; acetylcholine 10 mM
  percent quench of YFP fluorescence, 10 mM ach: 77.96%
[1]; ligand ABT-126
  sensitivity to ABT-126 compared with wild type α7-nAChR: approximately as sensitive
[1]; ligand AZD-0328
  fold more sensitive to AZD-0328 than wild type: approximately 3 fold
[1]; ligand Facinicline/RG3487
  fold more sensitive to Facinicline/RG3487 than wild type: ~10 fold
[1]; ligand TC-6987
  sensitivity to TC-6987 compared with wild type α7-nAChR: approximately as sensitive
[1]; ligand TC-6987, similar to wild type
  type of agonist activity of TC-6987 on the receptor: partial agonist activity
[1]; ligand acetylcholine
  sensitivity to acetylcholine compared with wild type α7-nAChR: approximately as sensitive
[1]; ligand nicotine
  fold less sensitive to nicotine than wild type: ~2 fold
